{"source": "paper PMC11649247", "target": "Mycobacterium tuberculosis polyketide synthase 13 (Mt-Pks13) (Mycobacterium tuberculosis) (UniProt I6X8D2)", "assay": "AUC; sedimentation velocity at pH 6 (of a series from pH 6 to 8); triple buffer (20 mM each sodium acetate, Tris/HCl, CHES), 150 mM NaCl, 2.5 mM βME; 30 000 r.p.m.; 4 °C or 20 °C; dimer to monomers", "data": [{"substance": "Mycobacterium tuberculosis polyketide synthase 13 (Mt-Pks13) (from UniProt I6X8D2 1-1733) (enzyme)", "values": [{"measurement": "stoichiometry N", "result": 2}]}]}
